Assay: label from the status in PepcDB records
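Further: failed if final PepcDB status was selected cloned or expressed and not failed if soluble or beyond.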

Sequence	protein production
MTTPSHLSDRYELGEILGFGGMSEVHLARDLRLHRDVAVKVLRADLARDPSFYLRFRREAQNAAALNHPAIVAVYDTGEAETPAGPLPYIVMEYVDGVTLRDIVHTEGPMTPKRAIEVIADACQALNFSHQNGIIHRDVKPANIMISATNAVKVMDFGIARAIADSGNSVTQTAAVIGTAQYLSPEQARGDSVDARSDVYSLGCVLYEVLTGEPPFTGDSPVSVAYQHVREDPIPPSARHEGLSADLDAVVLKALAKNPENRYQTAAEMRADLVRVHNGEPPEAPKVLTDAERTSLLSSAAGNLSGPRTDPLPRQDLDDTDRDRSIGSVGRWVAVVAVLAVLTVVVTIAINTFGGITRDVQVPDVRGQSSADAIATLQNRGFKIRTLQKPDSTIPPDHVIGTDPAANTSVSAGDEITVNVSTGPEQREIPDVSTLTYAEAVKKLTAAGFGRFKQANSPSTPELVGKVIGTNPPANQTSAITNVVIIIVGSGPATKDIPDVAGQTVDVAQKNLNVYGFTKFSQASVDSPRPAGEVTGTNPPAGTTVPVDSVIELQVSKGNQFVMPDLSGMFWVDAEPRLRALGWTGMLDKGADVDAGGSQHNRVVYQNPPAGTGVNRDGIITLRFGQ	failed
MTTSGERRVAGLAMIGSAACWGSATVMSRDLLVSMTSIQLLLVQLMASVCVLLALAAPRFPWTYRSREMTKGALCGVLEPGLAYVVGLAGLAQTTAGRASIISASEPVLIVLVAWVLFNQRPGLRLMAAIAIAVGGLVLVSWSPVVEDRGGAFRGDMMVVLATLFAAGYVVISSRIVGSFPAASLASGQQMVGLAFAMLVYAGAMAHGDDMGGFGAIPGGTLAYAALSGVVQYALAFWLYLIGLRYLSAGAAGLWLTLIPVFGLAGAWLWLGERPGLLTVLGAIVIVSAVVLGNRGGTE	failed
MTTSIQRRISIVIPCLNDAVLLEQCLSSIVAQTLQPEEVIVVDNGSTDNSVEVANRMGARVVHEPLQGITWASAAGYNSARGDLIVRFDADCVIPPDHLSQVNAIWNRTEETPGRTIVALTGTGSFDIPGRMGEWLALCYLGAYRWSTKQALGHYPIFGSNSVISRQWWEDVKDQITLSETFVHEDMYFSFFVRPHETVWFEKNLKLIMHPRALMGVRQSFIRLVRGFYTIKIAWKREPVHQRLESRRDWTLEHHHHHH	failed
MTTTASQEAFLQAFHAEYPAVTAEAFGRGHAPDGRSSYEILCDRVAGSMRVLDLGCGDGLLLEFLARRSGRQLAGVDLSPHSLALARRRPALSEAKLEEGRAQELPFADDSFDACVSHMALMLMSEIEQVASEVARVLSPGGVLACVVGGGAVGGEAYERFLALLRCTIEETPASQRIPALGDKRTRSREGLDEVLGPAGFTAVDWETVPIDLSAPGEQVWAAVSSLYDLGPLDRATLDRLREAFFAEVRDMTTSEGHVPCAFKIHLATARLR	failed
MTTTIEVGMLGLGTVGSGVVERLTRSAAKIEQTQGIRLHLAAVAVNHLNAPRTVQLPIGTRLTDSLTNVVCDRKIQLVIEVMGTVATAKKAIVAALNQGKAVVTANKDLIATAGPELAALAKKQGCDLFYEASVAGGIPILRTLTDSYVTDNVQAVSGIINGTANYMLSAMATGQSYEQALATAQATGYAEADPTNDVAGIDAAYKLMILSRFAFGQELSLPQIAPTGITHLSASVCRLAAENGWQIKLLAQIQRHGSGLYCRVAPVAVPVDQPLSQINGVQNAVAVQSEAIGTSLYTGPGAGSTATANSVLNDVLVAAKHLINGYRMIRNQKRSVSLTVTRFDQLPQTYLGIGPVAPEAVKYYANEADFSVKTIADDCYQITGLSAVKRKKLRANLPLTLIPIAGTTDWKQVTENSITSPINVAILEHHHHHH	not failed
MTVANWQVRDLTLILRTGEMQSRLEQARTDFGALLPETVYFQPSAIRLGEFDDEYILTRQELVYVYLREDIARQCALRRHLPSNSSNSGIMATAIPPWLMDARRLNRVMQERCDQGGLVHYYQGPHTNQFFLAIMPSNCFVRFGTDVINNENYGFYARGGNYTEEGEDDDDEMDDEDETGGAETRDSQTGNLINYPIIALGSCHLSALEHHHHHH	not failed
MTVDPASHITIPEADLARLRHCNHHDPHGFYGWHETEAGSVIRTRQVGATQVNLLIDDTSHVMTPIGDDIFAIDLGHRERADYRLEVTWPDQEPQVKADPYYFLPTVG	not failed
MTVGQVLRSYPQTVQTFLELGMHCLGCPSSTMESIEGAALTHGKKPDELVEKLNKVIAANLEHHHHHH	failed
MTWTNVLAMLVWTGASAVLLFAIMWVDSIFTKYNDLKEIKNGNTAVTTRFVMKLFAQGYILSQSITKANDLWQALLASAVSFVILLVVEMFIEFVLKKMAGLDLEEGTKEGSVAHAMLAGSLHIVGALILGACL	failed

From a protein production outcome set (Wang et al. 2014)
